Measured values: patent US20220339183

Target: human non-mutant tau (transgene of Alz17 mice), P10636
Sequence (P10636 whole entry, looked up, change not shown): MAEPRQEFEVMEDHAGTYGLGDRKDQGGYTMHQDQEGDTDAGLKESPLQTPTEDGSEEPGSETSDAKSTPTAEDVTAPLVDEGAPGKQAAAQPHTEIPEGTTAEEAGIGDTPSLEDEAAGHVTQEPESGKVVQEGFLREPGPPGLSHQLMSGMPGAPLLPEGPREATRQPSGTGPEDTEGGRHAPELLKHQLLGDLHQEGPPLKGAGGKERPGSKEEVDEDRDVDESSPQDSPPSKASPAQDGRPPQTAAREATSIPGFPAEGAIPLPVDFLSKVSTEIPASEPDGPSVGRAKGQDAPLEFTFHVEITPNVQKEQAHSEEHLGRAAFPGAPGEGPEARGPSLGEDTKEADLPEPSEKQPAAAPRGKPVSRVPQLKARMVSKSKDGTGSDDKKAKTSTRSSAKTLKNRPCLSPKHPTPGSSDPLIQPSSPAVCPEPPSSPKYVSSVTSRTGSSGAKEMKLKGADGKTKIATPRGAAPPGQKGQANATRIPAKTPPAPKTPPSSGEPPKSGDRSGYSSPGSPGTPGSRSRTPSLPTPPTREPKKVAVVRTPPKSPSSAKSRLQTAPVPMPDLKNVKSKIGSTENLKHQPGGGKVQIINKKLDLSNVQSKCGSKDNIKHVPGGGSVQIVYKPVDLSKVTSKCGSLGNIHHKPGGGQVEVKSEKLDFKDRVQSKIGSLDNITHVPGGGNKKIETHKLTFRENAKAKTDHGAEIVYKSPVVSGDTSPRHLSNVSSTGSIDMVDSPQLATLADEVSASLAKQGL

Protein | Immunofluorescence staining of brains with antibodies to tau and tau phosphorylated at T205 | Western blotting of synaptosome preparations from mouse brains for pT205 tau
constitutively active p38γ (p38γ^CA; p38γ Asp179Ala), HA-tagged (protein) MSSPPPARSGFYRQEVTKTAWEVRAVYRDLQPVGSGAYGAVCSAVDGRTGAKVAIKKLYRPFQSELFAKRAYRELRLLKHMRHENVIGLLDVFTPDETLDDFMDFYLVMPFMGTDLGKLMKHEKLGEDRIQFLVYQMLKGLRDLKPGNLAVNEDCELKILDFGLARQAASEMTGYVVTRWYRAPEVILNWMRYTQTVDIWSVGCIMAEMITGKTLFKGSDHLDQLKEIMKVTGTPPAEFVQRLQSDEAKNYMKGLPELEKKDFASILTNASPLAVNLLEKMLVLDAEQRVTAGEALAHPYFESLHDTEDEPQVQKYDDSFDDVDRTLDEWKRVTYKEVLSFKPPRQLGARVSKETPL | increased T205 tau phosphorylation in Alz17.p38γ^CA mice compared with Alz17 mice | increased phosphorylation of tau at T205 in the post-synapse of Alz17.p38γ^CA mice as compared with Alz17.p38γ^+/+ controls
endogenous mouse p38γ (protein) MSSPPPARKGFYRQEVTKTAWEVRAVYQDLQPVGSGAYGAVCSAVDSRTGNKVAIKKLYRPFQSELFAKRAYRELRLLKHMRHENVIGLLDVFTPDESLDDFTDFYLVMPFMGTDLGKLMKHETLSEDRIQFLVYQMLKGLKYIHAAGVIHRDLKPGNLAVNEDCELKILDFGLARQADSEMTGYVVTRWYRAPEVILNWMRYTQTVDIWSVGCIMAEMITGKILFKGNDHLDQLKEIMKITGTPPPEFVQKLQSAEAKNYMEGLPELEKKDFASVLTNASPQAVNLLERMLVLDAEQRVTAAEALTHPYFESLRDTEDEPKAQKYDDSFDDVDRTLEEWKRVTYKEVLSFKPPRQLGARVPKETAL |  | phosphorylation of tau at T205 was no longer detectable in Alz17.p38γ^-/- mice that also lacked p38γ in their post-synapses
